The results in this text go back to publication PMC6286387, “Physical and thermodynamic characterization of the rice gibberellin receptor/gibberellin/DELLA protein complex” (Scientific Reports, 2018).

In one data set the target is T1, OsGID1 (Oryza sativa, UniProt Q6L545).
T1 construct: gene GID1; recombinant, purified
T1 sequence (Q6L545 1-354): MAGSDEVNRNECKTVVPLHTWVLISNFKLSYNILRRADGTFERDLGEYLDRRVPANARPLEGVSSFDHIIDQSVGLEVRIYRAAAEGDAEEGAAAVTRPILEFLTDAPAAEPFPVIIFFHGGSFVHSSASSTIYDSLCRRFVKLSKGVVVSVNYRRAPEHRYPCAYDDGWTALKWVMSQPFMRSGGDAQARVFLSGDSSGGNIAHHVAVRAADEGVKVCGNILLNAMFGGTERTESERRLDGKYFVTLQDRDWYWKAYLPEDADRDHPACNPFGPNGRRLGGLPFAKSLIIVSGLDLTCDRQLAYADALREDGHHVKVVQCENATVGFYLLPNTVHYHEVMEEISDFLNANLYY
Briefly: (method not stated for the binary complex). The format is binding. The conditions noted are these: read-out: Kb (converted).

In data set [1] the target is T2, OsGID1 (rice gibberellin receptor GID1), Trx-free, used as the OsGID1/GA3 complex (rice (Oryza sativa), UniProt Q6L545 1-354).
T2 construct: Gibberellin receptor GID1 of rice (Oryza sativa); theoretical MW of the dimer printed as 79.2 kDa; The printed mass (39.6 kDa a monomer) fits the whole protein; source: recombinant, purified
T2 sequence (looked up): T1 sequence (Q6L545 1-354)
Put plainly: ITC; 10 μl aliquants of 400 μM OsGID1/GA3 into 1.4482 ml of 50 μM SLR1 variant, 30 °C, 20 mM sodium phosphate (pH 7.5), 150 mM NaCl, 2.0 mM β-ME, 0.1 mM GA3. The conditions noted are these: both partners purified. (ITC needs no label: the signal is the heat of the interaction.)

Data set [2] deals with the molecule itself. Put plainly: SEC; each protein chromatographed alone on Superdex 200 10/300 GL, 20 mM sodium phosphate (pH 7.5), 150 mM NaCl, 2 mM β-ME, 0.1 mM GA3; size against molecular weight standards. For orientation: In gel filtration, larger molecules generally elute earlier.
Data set [3] addresses T3, Trx-OsGID1, used as the Trx-OsGID1/GA3 complex (rice (Oryza sativa), UniProt Q6L545 1-354).
T3 construct: Gibberellin receptor GID1 of rice (Oryza sativa); GA3 (0.1 mM) was present in the gel filtration; also called Trx-GID1/GA3; source: recombinant, purified
T3 sequence (looked up): T1 sequence (Q6L545 1-354)
Put plainly: SEC; purified Trx-OsGID1 and a Trx-SLR1 truncation mutant incubated together at 4 °C for 30 min with 10^-4 M GA3; Superdex 200 10/300 GL in 20 mM sodium phosphate (pH 7.5), 150 mM NaCl, 2 mM β-ME, 0.1 mM GA3; fractions on SDS-PAGE. The conditions noted are these: both partners purified.

Data set [4] deals with the molecule itself. Briefly: ITC; dilution series: 10 μl aliquants of 0.4 mM SLR1(M28-A112) into 1.4482 ml of buffer without OsGID1/GA3, 30 °C; dimer to monomers.
For data set [5], the target named is T2, OsGID1 (rice gibberellin receptor …). Briefly: ITC; twenty 10 μl injections of 400 μM SLR1(M28-A112) into 50 μM OsGID1/GA3, 30 °C, 20 mM sodium phosphate (pH 7.5), 150 mM NaCl, 2.0 mM β-ME, 0.1 mM GA3. The conditions noted are these: both partners purified.
The target is the same in data set [6]. Briefly: ITC; 10 μl aliquants of 400 μM OsGID1/GA3 into 1.4482 ml of 50 μM SLR1 variant, 30 °C, 20 mM sodium phosphate (pH 7.5), 150 mM NaCl, 2.0 mM β-ME, 0.1 mM GA3. The settings on record: both partners purified. This is another data set of the same source.

`C=C1C[C@]23C[C@@]1(O)CC[C@H]2[C@@]12CC[C@H](O)[C@@](C)(C(=O)O1)[C@H]2[C@@H]3C(=O)O` [GA1]: the Kd at OsGID1 is 1.92 µM. For `C=C1C[C@]23C[C@@]1(O)CC[C@H]2[C@@]12C=C[C@H](O)[C@@](C)(C(=O)O1)[C@H]2[C@@H]3C(=O)O` [GA3], the Kd at OsGID1 is 3.57 µM.

With `C=C1C[C@]23C[C@H]1CC[C@H]2[C@@]12C=C[C@H](O)[C@@](C)(C(=O)O1)[C@H]2[C@@H]3C(=O)O` [GA7], the Kd at OsGID1 was 0.238 µM. The same measure, in the same setting: in the case of `C=C1C[C@]23C[C@H]1CC[C@H]2[C@@]12CC[C@H](O)[C@@](C)(C(=O)O1)[C@H]2[C@@H]3C(=O)O` [GA4] it was 0.192 µM.

B1: SLR1(M1-A172) (domain or fragment, rice (Oryza sativa), UniProt Q7G7J6 1-172, looked up)
chain: MKREYQEAGGSSGGGSSADMGSCKDKVMAGAAGEEEDVDELLAALGYKVRSSDMADVAQKLEQLEMAMGMGGVSAPGAADDGFVSHLATDTVHYNPSDLSSWVESMLSELNAPLPPIPPAPPAARHASTSSTVTGGGGSGFFELPAAADSSSSTYALRPISLPVVATADPSA
notes: DELLA protein SLR1 of rice (Oryza sativa), residues M1-A172; Named without Trx in the ITC experiments; removal of the tag is told in general in the methods; also called SLR(M1-A172); source: E. coli, purified (HiTrap Chelating, Superdex 200; thrombin, HiTrap Chelating, Superdex 75); not shown: Trx, N-terminal, cleaved; His6, N-terminal, cleaved
With B1, the Ka in data set [1] worked out at 2.8e+07 M⁻¹.

B2: Trx-SLR1(M1-E104) (domain or fragment, rice (Oryza sativa), UniProt Q7G7J6 1-104, looked up)
chain: MKREYQEAGGSSGGGSSADMGSCKDKVMAGAAGEEEDVDELLAALGYKVRSSDMADVAQKLEQLEMAMGMGGVSAPGAADDGFVSHLATDTVHYNPSDLSSWVE
notes: DELLA protein SLR1 of rice (Oryza sativa), residues M1-E104; Thioredoxin-hexahistidine fusion from the vector pDEST-trx; source: E. coli, purified (HiTrap Chelating, Superdex 200); not shown: Trx, N-terminal, kept; His6, N-terminal, kept
For the molecule B2, the “stoichiometry N” value in data set [2] amounted to 2.

B3: SLR1(M1-H327) (domain or fragment, rice (Oryza sativa), UniProt Q7G7J6 1-327, looked up)
chain: MKREYQEAGGSSGGGSSADMGSCKDKVMAGAAGEEEDVDELLAALGYKVRSSDMADVAQKLEQLEMAMGMGGVSAPGAADDGFVSHLATDTVHYNPSDLSSWVESMLSELNAPLPPIPPAPPAARHASTSSTVTGGGGSGFFELPAAADSSSSTYALRPISLPVVATADPSAADSARDTKRMRTGGGSTSSSSSSSSSLGGGASRGSVVEAAPPATQGAAAANAPAVPVVVVDTQEAGIRLVHALLACAEAVQQENFAAAEALVKQIPTLAASQGGAMRKVAAYFGEALARRVYRFRPADSTLLDAAFADLLHAHFYESCPYLKFAH
notes: DELLA protein SLR1 of rice (Oryza sativa), residues M1-H327; Named without Trx in the ITC experiments; removal of the tag is told in general in the methods; also called SLR(M1-H327); source: E. coli, purified (HiTrap Chelating, Superdex 200; thrombin, HiTrap Chelating, Superdex 75); not shown: Trx, N-terminal, cleaved; His6, N-terminal, cleaved
In data set [1], B3 yielded a Ka of 2e+06 M⁻¹.

B4: Trx-SLR1(M1-L110) (domain or fragment, rice (Oryza sativa), UniProt Q7G7J6 1-110, looked up)
chain: MKREYQEAGGSSGGGSSADMGSCKDKVMAGAAGEEEDVDELLAALGYKVRSSDMADVAQKLEQLEMAMGMGGVSAPGAADDGFVSHLATDTVHYNPSDLSSWVESMLSEL
notes: DELLA protein SLR1 of rice (Oryza sativa), residues M1-L110; Thioredoxin-hexahistidine fusion from the vector pDEST-trx; source: E. coli, purified (HiTrap Chelating, Superdex 200); not shown: Trx, N-terminal, kept; His6, N-terminal, kept
On to B4, for which the binding result in data set [2] and in data set [3] was “binds” each time.

B5: SLR1(M28-A112) ΔSPACE(G69-F83) (domain or fragment, rice (Oryza sativa), UniProt Q7G7J6 28-112, looked up)
chain: MAGAAGEEEDVDELLAALGYKVRSSDMADVAQKLEQLEMAMVSHLATDTVHYNPSDLSSWVESMLSELNA
notes: DELLA protein SLR1 of rice (Oryza sativa), residues M28-A112 with G69-F83 deleted; Named without Trx in the ITC experiments; removal of the tag is told in general in the methods; also called SLR(M28-A112)ΔSPACE; source: E. coli, purified (HiTrap Chelating, Superdex 200; thrombin, HiTrap Chelating, Superdex 75); not shown: Trx, N-terminal, cleaved; His6, N-terminal, cleaved
In turn, B5 yielded a Ka in data set [1] of 390000 M⁻¹.

B6: Trx-SLR1(M28-A112) (domain or fragment, rice (Oryza sativa), UniProt Q7G7J6 28-112, looked up)
chain: MAGAAGEEEDVDELLAALGYKVRSSDMADVAQKLEQLEMAMGMGGVSAPGAADDGFVSHLATDTVHYNPSDLSSWVESMLSELNA
notes: DELLA protein SLR1 of rice (Oryza sativa), residues M28-A112; theoretical monomeric MW of the fusion 29.3 kDa; Thioredoxin-hexahistidine fusion from the vector pDEST-trx; source: E. coli, purified (HiTrap Chelating, Superdex 200); not shown: Trx, N-terminal, kept; His6, N-terminal, kept
As for B6, the entries for the “stoichiometry N” value in data set [2] and in data set [3] were 2 and 1, respectively.

B7: SLR1(M28-A112), Trx-free (domain or fragment, rice (Oryza sativa), UniProt Q7G7J6 28-112, looked up)
chain: B6 chain
notes: DELLA protein SLR1 of rice (Oryza sativa), residues M28-A112; 13C/15N-labelled for the NMR spectra; also called SLR(M28-A112); source: E. coli, purified (HiTrap Chelating, Superdex 200; thrombin, HiTrap Chelating, Superdex 75); not shown: Trx, N-terminal, cleaved; His6, N-terminal, cleaved
B7: in data set [4], the Kd is 1600 µM and the dH was -66 kcal/mol. In data set [5], the Ka came out at 1.2e+07 M⁻¹, the dH was -8.75 kcal/mol and the “stoichiometry N” value stood at 0.88. Moreover, the Ka in data set [1] worked out at 2.9e+07 M⁻¹. The same molecule gave a Ka in data set [6] of 1.1e+07 M⁻¹.

One may read the stoichiometry N as a count of units in the complex or per binding partner.
